{
  "source": "patent US11191771B2",
  "about": "“Combinations of PBD-based antibody drug conjugates with FLT3 inhibitors” (Seagen Inc., priority 2016, dated 2021)",
  "molecules": {"B1": {"name": "SGN-CD33A: h2H12EC antibody conjugated to SGD-1910, the pyrrolobenzodiazepine dimer drug-linker (conjugate, chains of the INN, looked up)", "VH": "QVQLVQSGAEVKKPGASVKVSCKASGYTFTNYDINWVRQAPGQGLEWIGWIYPGDGSTKYNEKFKAKATLTADTSTSTAYMELRSLRSDDTAVYYCASGYEDAMDYWGQGTTVTVSS", "VL": "DIQMTQSPSSLSASVGDRVTINCKASQDINSYLSWFQQKPGKAPKTLIYRANRLVDGVPSRFSGSGSGQDYTLTISSLQPEDFATYYCLQYDEFPLTFGGGTKVEIK", "modifications": "PBD dimer payload (talirine)"}},
  "test_system": "FLT3/ITD MV4-11 xenografts",
  "assay": "Survival of FLT3/ITD MV4-11 xenografts",
  "type": "in vivo",
  "conditions": "MV4-11 s.c. in SCID mice, quizartinib 0.4 mg/kg daily for 21 days by mouth",
  "experimental": "Five million MV4-11 cells were implanted subcutaneously in SCID mice. Tumor growth was monitored throughout the course of the study with bilateral vernier caliper measurements, and mean tumor volumes were calculated using the equation (0.5×[length×width^2]).\nMice with advanced tumor burden were sacrificed upon reaching tumor volumes of greater than 400 mm^3 or showing symptoms of hind limb paralysis, cranial swelling, and/or moribundity.",
  "data": [
    {"molecule": "B1", "values": [
      {"measurement": "effect on progression / survival", "setting": "ADC 10 mcg/kg once i.p., FIG. 5", "result": "induced delay of progression"},
      {"measurement": "median survival time", "setting": "SGN-CD33A or SGN-CD123A 10 mcg/kg once i.p., untreated 23 days", "result": 31, "unit": "days"}
    ]}
  ]
}
